This is an account of results in article PMC10914487, “Interaction of human dendritic cell receptor DEC205/CD205 with keratins” (The Journal of Biological Chemistry, 2024).

B1: CysR∼CTLD3-Fc of DEC205 [human] / K10-T10 (residue G481-G490), SUMO fusion [human] (parent complex)
chain 1: SGRAANDPFTIVHGNTGKCIKPVYGWIVADDCDETEDKLWKWVSQHRLFHLHSQKCLGLDITKSVNELRMFSCDSSAMLWWKCEHHSLYGAARYRLALKDGHGTAISNASDVWKKGGSEESLCDQPYHEIYTRDGNSYGRPCEFPFLIDGTWHHDCILDEDHSGPWCATTLNYEYDRKWGICLKPENGCEDNWEKNEQFGSCYQFNTQTALSWKEAYVSCQNQGADLLSINSAAELTYLKEKEGIAKIFWIGLNQLYSARGWEWSDHKPLNFLNWDPDRPSAPTIGGSSCARMDAESGLWQSFSCEAQLPYVCRKPLNNTVELTDVWTYSDTRCDAGWLPNNGFCYLLVNESNSWDKAHAKCKAFSSDLISIHSLADVEVVVTKLHNEDIKEEVWIGLKNINIPTLFQWSDGTEVTLTYWDENEPNVPYNKTPNCVSYLGELGQWKVQSCEEKLKYVCKRKGEKLNDASSDKMCPPDEGWKRHGETCYKIYEDEVPFGTNCNLTITSRFEQEYLNDLMKKYDKSLRKYFWTGLRDVDSCGEYNWATVGGRRRAVTFSNWNFLEPASPGGCVAMSTGKSVGKWEVKDCRSFKALSICKKMS
chain 2: GSSGGGHGGG

This assay covers variants of B1. Description: ELISA; pH 6.0; protein conc 5 µg/ml (highest point of the titration); parent: 3.9; read off a plot.
Turning to chain 2 GSSGGGRGGG [chain 2 H7R], the response is about 1.9 OD 450.

With chain 2 GSRGGGHGGG [chain 2 S3R], the response was about 2.1 OD 450.
